Experimental data reported in patent US20130130922A1, “ANALYSIS OF METHYLATION SITES” (Centre for Addiction and Mental Health, priority 2011, published 2013).

Tested on: Control-H reference system (specific and nonspecific 200 bp DNA fragments from pBR322)
Assay: mTAG labeling, biotinylation, capture on streptavidin beads and multiplex real-time PCR of Control-H reference system
Settings: Control-H alone; Ado-11-amine cofactor; 228 nM enzyme; 37° C. 2 hours; percentage of material used for bead separation

B1: HpaII (Q104A/N335A): His6-tagged M.HpaII C5 DNA methyltransferase (CCGG target site) double-alanine mutant Q104A/N335A (protein, UniProt P15446 1-358, looked up, variant Q104A N335A)
Type II methyltransferase …: MKDVLDDNLLEEPAAQYSLFEPESNPNLREKFTFIDLFAGIGGFRIAMQNLGGKCIFSSEWDEQAQKTYEANFGDLPYGDITLEETKAFIPEKFDILCAGFPCAAFSIAGKRGGFEDTRGTLFFDVAEIIRRHQPKAFFLENVKGLKNHDKGRTLKTILNVLREDLGYFVPEPAIVNAKNFGVPQNRERIYIVGFHKSTGVNSFSYPEPLDKIVTFADIREEKTVPTKYYLSTQYIDTLRKHKERHESKGNGFGYEIIPDDGIANAIVVGGMGRERNLVIDHRITDFTPTTNIKGEVNREGIRKMTPREWARLQGFPDSYVIPVSDASAYKQFGASVAVPAIQATGKKILEKLGNLYD
modifications: His6 tag
level of nonspecific probe found on beads: 5-6%
yield of unmethylated (specific) probe recovered on beads: 50-60%
